Laboratory results as given in publication PMC10244618.
Where “and” joins values, the source holds several entries; their conditions need not be identical. Equal values may be shown once.

B1: NF2 (merlin) isoform 7, human, full length (507 aa, lacks exons 2-3 = isoform-1 residues 39-121; exon-16 C-terminus), P35240-4 (parent)
chain: MAGAIASRMSFSSLKRKQPKTFTVRIVTMDAEMEFNCEVKKQILDEKIYCPPEASVLLASYAVQAKYGDYDPSVHKRGFLAQEELLPKRVINLYQMTPEMWEERITAWYAEHRGRARDEAEMEYLKIAQDLEMYGVNYFAIRNKKGTELLLGVDALGLHIYDPENRLTPKISFPWNEIRNISYSDKEFTIKPLDKKIDVFKFNSSKLRVNKLILQLCIGNHDLFMRRRKADSLEVQQMKAQAREEKARKQMERQRLAREKQMREEAERTRDELERRLLQMKEEATMANEALMRSEETADLLAEKAQITEEEAKLLAQKAAEAEQEMQRIKATAIRTEEEKRLMEQKVLEAEVLALKMAEESERRAKEADQLKQDLQEAREAERRAKQKLLEIATKPTYPPMNPIPAPLPPDIPSFNLIGDSLSFDFKDTDMKRLSMEIEKEKVEYMEKSKHLQEQLNELKTEIEALKLKERETALDILHNENSDRGGSSKHNTIKKPQAQGRRPICI

Variants of: B1
Test: reverse yeast two-hybrid deep mutational scan (rY2H-seq): NF2 isoform 7 mutant library as bait mated with wild-type prey strains; selection on medium lacking adenine for non-interacting pairs; NextSeq paired-end sequencing; enrichment vs …
Conditions: yeast diploids after mating (RBait_S3 x RPrey_S3), 30 °C, selection for reporter genes on NB agar, HIGHER = WEAKER BINDING (the opposite of display enrichments): higher = stronger loss of interaction: reverse Y2H selects yeast in which bait and prey do NOT interact (growth without adenine), so a …, hits-only table, scale: rY2H score, numbering: uniprot, sequence starts at 1
[1] = with KDM1A (lysine-specific histone demethylase 1A; the table's label AOF2 is a gene synonym of KDM1A), O60341, human ABL2 co-expressed as the kinase-dead K35M mutant …
[2] = with KDM1A (lysine-specific histone demethylase 1A; the table's label AOF2 is a gene synonym of KDM1A), O60341, human tyrosine kinase ABL2 co-expressed as the active kinase …
[3] = with EMILIN1 (elastin microfibril interfacer 1), Q9Y6C2, human tyrosine kinase ABL2 co-expressed as the active kinase …
[4] = with PIK3R3 (phosphatidylinositol 3-kinase regulatory subunit gamma), Q92569, human tyrosine kinase ABL2 co-expressed as the active kinase …
[5] = with NF2 C-terminal domain (wild type; homomeric NF2-NF2 interaction), P35240, human ABL2 co-expressed as the kinase-dead K35M mutant …, partner unresolved

| enrichment [1] | enrichment [2] | enrichment [3] | enrichment [4] | enrichment [5] | Variant |
| --- | --- | --- | --- | --- | --- |
| 3.5 | 3.78 | – | – | – | A354L |
| 1.87 | – | 2.56 | – | – | A406Q |
| – | – | 2.13 | – | – | A406K |
| – | – | 3.71 | – | – | L371E |
| – | – | 2.9 and 1.56 | 1.38 | 2.88 | L371A |
| – | – | 4.17 | – | – | E362K |
| – | – | 2.72 | – | – | G419L |
| – | – | 3.15 | 4.76 | – | R363E |
| 1.89 | – | – | – | – | R363G |
| 4.11 | – | 8.54 | – | – | L417I |
| 2.45 | 3.12 | – | 2.19 | – | L417E |
| – | – | 1.96 | – | – | E367K |
| 2.07 | – | 1.78 | – | – | L422A |
| – | – | 5.83 | – | – | A350E |
| – | – | 1.45 | – | 1.6 | A381T |
| – | – | 1.42 | – | – | A381E |
| – | – | 5.46 | 8.42 | – | A381M |
| – | – | 1.43 | 1.6 | – | A381V |
| – | – | 1.87 | – | – | A381L |
| 1.83 | – | 1.5 and 2.77 | – | – | R383A |
| – | – | 2.82 | – | 1.66 | R383K |
| – | 11.2 | 5.25 | – | – | T429K |
| 2.15 | – | – | 2.43 | 4.56 and 2.51 | L389K |
| 1.45 | – | – | – | – | L389S |
| – | 1.87 | 2.12 | – | – | L389E |
| – | – | 10.3 and 7.31 | – | – | E444A |

| enrichment [1] | enrichment [2] | enrichment [3] | enrichment [4] | enrichment [5] | Variant |
| --- | --- | --- | --- | --- | --- |
| – | – | 1.8 | – | – | K395Q |
| – | – | 3.06 | – | – | D425L |
| 3.64 | – | – | – | – | E472A |
| 1.59 | – | – | 1.45 | – | G501C |
| – | – | 2.11 | – | – | Q376K |
| 1.73 | 1.37 | – | – | 1.58 | L434R |
| 3.09 | – | 2.78 | – | – | L348K |
| 4.88 | – | 2.87 | – | – | D484K |
| 7.88 and 2.96 | – | – | – | 3.23 | D374T |
| 3.88 | – | – | 7.08 | – | K356L |
| – | – | 1.45 | – | – | L478A |
| – | – | 4.03 | – | – | E377A |
| – | – | 2.88 | – | – | F426V |
| 3.99 | – | 1.63 | – | – | F426A |
| 3.18 | – | – | – | – | R471A |
| 1.66 and 2.35 | – | – | – | 2.95 and 2.99 | E351K |
| – | – | 5.05 | – | 7.16 | P405L |
| 6.05 | – | – | – | – | P405S |
| 1.65 | – | – | – | – | Q498L |
| 2 | 1.85 | – | – | – | P504R |
| – | – | 7.56 | – | – | S489E |
| 3.78 | – | – | – | – | I392E |
| 3.2 | 2.39 | 2.57 | – | 1.49 and 2.6 | Q345L |
| 2.79 | 1.61 | – | – | – | Q345K |
| – | 3.73 | 3.31 | 3.74 | – | Q345E |
| – | 1.8 and 1.81 | 1.84 | 3.26 | – | S483E |

Continued, variant first:

| Variant | enrichment [1] | enrichment [2] | enrichment [3] | enrichment [4] | enrichment [5] |
| --- | --- | --- | --- | --- | --- |
| A107E | – | – | 6.39 | 6.23 | – |
| H75S | 2.92 | 3.22 | – | – | 2.58 |
| H75E | 2.15 | – | 6.72 | 11.9 and 8.5 | 2.7 |
| L58P | 7.73 | 4.64 and 3.28 | 6.14 | 6.79 and 6.06 | 2.09 |
| I307Y | – | – | 2.93 | – | – |
| I307L | 2.24 and 1.83 | 4.9 | 3.37 | – | – |
| R335C | – | 1.78 and 2.82 | 2.88 | – | – |
| R335E | – | – | 2.52 | – | – |
| E187K | 1.65 | – | – | – | – |
| E282L | – | – | 3.15 | – | – |
| E282K | 1.54 | – | – | – | – |
| A240T | – | – | 1.45 | – | – |
| G78K | 1.76 | 5.27 | – | – | – |
| V74S | – | – | 6.93 | – | – |
| L300R | – | – | 3.24 | – | – |
| L300C | – | – | 2.3 | – | 2.18 |
| L300K | – | – | 8.53 | – | – |
| L300P | 4.3 | – | – | – | – |
| E34A | 1.5 | – | – | – | – |
| E123L | 1.42 | – | – | – | – |
| E123D | 1.75 | – | 1.52 | – | – |
| I141L | – | – | 7.65 | – | – |
| E337L | 1.6 | – | – | – | – |
| E323L | – | 1.55 | 2.75 | – | 3.82 |
| E323A | 1.84 and 3.01 | – | 1.45 | – | 1.8 |

| Variant | enrichment [1] | enrichment [2] | enrichment [3] | enrichment [4] | enrichment [5] |
| --- | --- | --- | --- | --- | --- |
| E323G | – | – | 1.92 | – | – |
| T269E | – | – | 4.01 | – | 3.61 |
| Q317R | – | – | 1.98 | – | – |
| E311L | 2.66 | 5.65 | – | – | – |
| T106L | – | – | 4.33 | – | – |
| G157K | – | – | 3.64 | 7.92 | – |
| G157E | – | – | 5.67 and 3.65 | 5.03 and 2.8 | – |
| L315K | – | – | 4.2 | – | 1.46 |
| L315W | – | – | 7.24 | – | – |
| R258V | – | – | 2.52 | 1.6 | 1.38 |
| L150A | – | – | 2.56 | – | – |
| D299T | – | – | 1.88 | – | – |
| D299L | 3.02 and 4.36 | 4.23 | 3.97 and 2.17 | – | 3.22 |
| E325A | 3.73 | – | 2.68 | – | – |
| E325T | 4.73 | – | 6.21 | – | – |
| A290V | 1.65 | – | – | 2.94 | – |
| A290L | – | – | 38.6 | – | – |
| R166N | – | 1.82 | 2.2 | – | – |
| R166E | 1.81 | – | – | 1.52 | – |
| R166S | – | – | 8.73 | – | – |
| E111A | – | 1.51 | 4.1 | – | – |
| R263G | – | – | 1.44 | – | – |
| R263E | – | – | 2.7 | – | 3.74 |
| P192S | 1.69 | – | – | – | – |
| M238I | 2.35 | – | – | 2.66 | – |

| Variant | enrichment [1] | enrichment [2] | enrichment [3] | enrichment [4] | enrichment [5] |
| --- | --- | --- | --- | --- | --- |
| A331E | – | – | 2.11 | – | 1.53 |
| A331K | 2.19 | 4.83 | 4.31 | – | – |
| E148K | – | 1.49 | 2.78 and 2.12 | – | – |
| V56K | 8.67 | – | 3.86 | 3.28 | – |
| K318A | 3.56 | 3.09 | 5.52 | 5.56 | – |
| R328T | – | – | 2.61 | – | – |
| R328P | 1.53 | – | – | – | – |
| R341T | 2.28 | – | 3.59 | – | – |
| V209A | – | – | 5.24 | – | – |
| L151E | – | – | 15.6 | – | – |
| I171D | 5.35 | – | – | 3.5 and 7.01 | – |
| E259K | – | – | 3.41 | – | – |
| S294K | – | – | 4.59 and 3.72 | – | 4.08 |
| F79A | – | – | 4.71 | – | – |
| M262I | 1.81 | – | – | – | – |
| S12L | 5.88 | – | – | – | – |
| N143I | – | – | 5.68 and 2.91 | – | – |
| P174R | – | – | 4.14 | – | 4.82 |
| L156W | 4.82 and 4.33 | 5.87 | 1.61 and 3.25 | 3.91 and 3.42 | 5.5 and 4.13 |
| K144L | – | 3.56 | 2.68 | – | – |
| Q306E | – | – | 8.86 | – | – |
| A247E | 7.37 | – | – | – | 6.62 |
| A247K | – | – | 4.58 | – | – |
